Measurements: PMC5267338

Columns and labels:
[1] = target: human mitochondrial ferredoxin 1 (FDX1), holo form with [2Fe-2S] cluster (H. sapiens); experiment: ITC
[2] = target: human mitochondrial ferredoxin 2 (FDX2), holo form with [2Fe-2S] cluster (H. sapiens) (UniProt Q6P4F2); experiment: ITC
human mitochondrial ferredoxin 2 (FDX2), holo form with [2Fe-2S] cluster (H. sapiens), sequence (Q6P4F2 53-183): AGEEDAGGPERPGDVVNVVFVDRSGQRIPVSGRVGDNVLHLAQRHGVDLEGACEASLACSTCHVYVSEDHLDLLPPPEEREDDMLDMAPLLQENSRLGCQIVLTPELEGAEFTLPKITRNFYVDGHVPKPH

[Acp]2:[ISD11]2:[NFS1]2 complex (cysteine desulfurase complex), sequence (Q9Y697 53-457): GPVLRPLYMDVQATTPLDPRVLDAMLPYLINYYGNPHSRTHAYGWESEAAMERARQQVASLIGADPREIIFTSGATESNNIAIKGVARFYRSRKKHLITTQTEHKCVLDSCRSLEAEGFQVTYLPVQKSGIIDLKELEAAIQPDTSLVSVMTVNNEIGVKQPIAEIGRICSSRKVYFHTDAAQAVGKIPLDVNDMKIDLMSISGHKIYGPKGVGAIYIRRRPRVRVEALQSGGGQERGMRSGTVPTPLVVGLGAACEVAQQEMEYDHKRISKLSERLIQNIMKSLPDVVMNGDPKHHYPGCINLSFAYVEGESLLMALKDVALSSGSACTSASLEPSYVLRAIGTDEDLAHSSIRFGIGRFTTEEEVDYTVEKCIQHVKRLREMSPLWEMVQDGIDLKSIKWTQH
[Acp]2:[ISD11]2:[NFS1]2 complex (cysteine desulfurase complex), sequence (Q9HD34 whole entry): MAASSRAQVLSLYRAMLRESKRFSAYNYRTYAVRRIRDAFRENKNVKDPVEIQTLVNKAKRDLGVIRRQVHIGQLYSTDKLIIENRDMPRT
[Acp]2:[ISD11]2:[NFS1]2 complex (cysteine desulfurase complex), sequence (P0A6A8 2-78): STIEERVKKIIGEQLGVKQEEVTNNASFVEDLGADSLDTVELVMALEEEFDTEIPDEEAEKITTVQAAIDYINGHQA

Work on “[Acp]2:[ISD11]2:[NFS1]2 complex (cysteine desulfurase complex) (from UniProt Q9Y697 53-457; Q9HD34 1-91; P0A6A8 2-78)” yielded a Kd [1] of 41.7 µM and a Kd [2] of 14.9 µM.
